Assays:
HLA-A*24:02 = test: IEDB peptide-MHC binding, purified MHC/competitive/fluorescence; filed as Kd, often an IC50 or EC50 that approximates it; ≥ and ≤ were set here for values at or beyond the usual limits of such assays
HLA-B*27:05 [1] = test: as above
HLA-A*02:01 = test: as above
HLA-A*02:03 = test: as above
HLA-A*02:11 = test: as above
HLA-A*02:12 = test: as above
HLA-A*02:19 = test: as above
HLA-A*03:01 = test: as above; details: source organism: Brucella abortus S19
HLA-A*24:03 = test: as above
HLA-A*26:01 = test: as above
HLA-A*29:02 = test: as above; details: source organism: Brucella abortus S19
HLA-A*68:02 = test: as above
HLA-A*69:01 = test: as above
HLA-B*15:01 [2] = test: as above
HLA-B*15:17 = test: as above
HLA-B*18:01 = test: as above
HLA-B*27:03 = test: as above
HLA-B*39:01 = test: as above
HLA-B*46:01 [3] = test: as above
HLA-B*51:01 = test: as above
HLA-B*57:01 [4] = test: as above
HLA-B*08:01 = test: IEDB peptide-MHC binding, purified MHC/direct/fluorescence; filed as Kd, often an IC50 or EC50 that approximates it; ≥ and ≤ were set here for values at or beyond the usual limits of such assays; details: source organism: Giardia lamblia ATCC 50803
HLA-B*08:02 = test: as above
HLA-A*02:16 = test: IEDB peptide-MHC binding, purified MHC/competitive/fluorescence; filed as Kd, often an IC50 or EC50 that approximates it; ≥ and ≤ were set here for values at or beyond the usual limits of such assays
HLA-A*31:01 [5] = test: as above
HLA-A*01:01 = test: IEDB peptide-MHC binding, purified MHC/direct/fluorescence; filed as Kd, often an IC50 or EC50 that approximates it; ≥ and ≤ were set here for values at or beyond the usual limits of such assays; details: source organism: Camelpox virus M-96
HLA-A*31:01 [6] = test: as above; details: source organism: Camelpox virus M-96
HLA-B*07:02 = test: as above
HLA-B*15:01 [7] = test: as above; details: source organism: Camelpox virus M-96
HLA-B*27:05 [8] = test: as above; details: source organism: Camelpox virus M-96
HLA-B*46:01 [9] = test: as above; details: source organism: Camelpox virus M-96
HLA-B*48:01 = test: as above; details: source organism: Camelpox virus M-96
HLA-B*57:01 [10] = test: as above; details: source organism: Camelpox virus M-96
HLA-B*58:01 = test: as above; details: source organism: Camelpox virus M-96
HLA-C*12:03 = test: as above
HLA-A*11:01 = test: IEDB peptide-MHC binding, purified MHC/competitive/fluorescence; filed as Kd, often an IC50 or EC50 that approximates it; ≥ and ≤ were set here for values at or beyond the usual limits of such assays; details: source organism: Vaccinia virus WR
HLA-A*26:02 = test: as above; details: source organism: Vaccinia virus WR
HLA-A*30:01 = test: as above; details: source organism: Vaccinia virus WR
HLA-B*35:01 = test: as above; details: source organism: Vaccinia virus WR
HLA-C*03:03 = test: IEDB peptide-MHC binding, purified MHC/direct/fluorescence; filed as Kd, often an IC50 or EC50 that approximates it; ≥ and ≤ were set here for values at or beyond the usual limits of such assays; details: source organism: Yersinia frederiksenii ATCC 33641
HLA-C*15:02 = test: as above
HLA-C*14:02 = test: as above; details: source organism: Entamoeba histolytica HM-1:IMSS
[11] = source organism: Brucella abortus S19
[12] = source organism: Vibrio parahaemolyticus AQ3810
[13] = source organism: Influenza A virus (A/Gf/HK/SSP607/2003(H9N2))
[14] = source organism: Vaccinia virus WR
[15] = source organism: Yersinia frederiksenii ATCC 33641
[16] = source organism: Entamoeba histolytica HM-1:IMSS

RYSGFVRTLF
Kd (HLA-A*24:02; source organism: Influenza A virus (A/turkey/Ohio/313053/2004(H3N2))): ≤ 0.0001 µM

GKLNRLIGK
Kd (HLA-B*27:05 [1]; source organism: Influenza A virus (A/Hong Kong/CUHK13527/2003(H3N2))): 1.84 µM

KQWIVAGAI
Kd (HLA-A*02:01; [11]): 0.0017 µM | Kd (HLA-A*02:03; [11]): ≥ 20 µM | Kd (HLA-A*02:11; [11]): ≤ 0.0001 µM | Kd (HLA-A*02:12; [11]): ≥ 20 µM | Kd (HLA-A*02:19; [11]): ≥ 20 µM | Kd (HLA-A*03:01): ≥ 20 µM | Kd (HLA-A*24:03; [11]): ≥ 20 µM | Kd (HLA-A*26:01; [11]): ≥ 20 µM | Kd (HLA-A*29:02): ≥ 20 µM | Kd (HLA-A*68:02; [11]): ≥ 20 µM | Kd (HLA-A*69:01; [11]): ≥ 20 µM | Kd (HLA-B*15:01 [2]; [11]): ≥ 20 µM | Kd (HLA-B*15:17; [11]): ≥ 20 µM | Kd (HLA-B*18:01; [11]): ≥ 20 µM | Kd (HLA-B*27:03; [11]): ≥ 20 µM | Kd (HLA-B*39:01; [11]): ≥ 20 µM | Kd (HLA-B*46:01 [3]; [11]): ≥ 20 µM | Kd (HLA-B*51:01; [11]): ≥ 20 µM | Kd (HLA-B*57:01 [4]; [11]): ≥ 20 µM

PYMSALFWI
Kd (HLA-A*24:02; source organism: Cryptosporidium parvum Iowa II): 0.0008 µM

YSKIRGAAL
Kd (HLA-B*08:01): 0.027 µM | Kd (HLA-B*08:02; source organism: Giardia lamblia ATCC 50803): 0.445 µM

KQWRGDKML
Kd (HLA-B*27:05 [1]; source organism: Bacillus thuringiensis str. Al Hakam): 0.0852 µM

KYNGIITDTI
Kd (HLA-A*24:02; source organism: Influenza A virus (A/goose/Guangdong/1/1996(H5N1))): 0.0002 µM

HFIYHKREK
Kd (HLA-A*02:01; [12]): ≥ 20 µM | Kd (HLA-A*02:03; [12]): ≥ 20 µM | Kd (HLA-A*02:11; [12]): ≥ 20 µM | Kd (HLA-A*02:12; [12]): ≥ 20 µM | Kd (HLA-A*02:16; [12]): ≥ 20 µM | Kd (HLA-A*02:19; [12]): ≥ 20 µM | Kd (HLA-A*24:03; [12]): ≥ 20 µM | Kd (HLA-A*26:01; [12]): ≥ 20 µM | Kd (HLA-A*31:01 [5]; [12]): 0.0188 µM | Kd (HLA-A*68:02; [12]): ≥ 20 µM | Kd (HLA-A*69:01; [12]): ≥ 20 µM | Kd (HLA-B*15:01 [2]; [12]): ≥ 20 µM | Kd (HLA-B*15:17; [12]): ≥ 20 µM | Kd (HLA-B*18:01; [12]): ≥ 20 µM | Kd (HLA-B*27:03; [12]): ≥ 20 µM | Kd (HLA-B*39:01; [12]): ≥ 20 µM | Kd (HLA-B*46:01 [3]; [12]): ≥ 20 µM | Kd (HLA-B*51:01; [12]): ≥ 20 µM | Kd (HLA-B*57:01 [4]; [12]): ≥ 20 µM

AMITYITRK
Kd (HLA-A*02:01; [13]): ≥ 20 µM | Kd (HLA-A*02:03; [13]): ≥ 20 µM | Kd (HLA-A*02:12; [13]): ≥ 20 µM | Kd (HLA-A*02:16; [13]): ≥ 20 µM | Kd (HLA-A*02:19; [13]): ≥ 20 µM | Kd (HLA-A*24:03; [13]): ≥ 20 µM | Kd (HLA-A*26:01; [13]): ≥ 20 µM | Kd (HLA-A*31:01 [5]; [13]): 0.158 µM | Kd (HLA-A*68:02; [13]): ≥ 20 µM | Kd (HLA-A*69:01; [13]): ≥ 20 µM | Kd (HLA-B*15:01 [2]; [13]): ≥ 20 µM | Kd (HLA-B*15:17; [13]): ≥ 20 µM | Kd (HLA-B*18:01; [13]): ≥ 20 µM | Kd (HLA-B*27:03; [13]): ≥ 20 µM | Kd (HLA-B*39:01; [13]): ≥ 20 µM | Kd (HLA-B*46:01 [3]; [13]): ≥ 20 µM | Kd (HLA-B*51:01; [13]): ≥ 20 µM | Kd (HLA-B*57:01 [4]; [13]): ≥ 20 µM

FVFEATKLY
Kd (HLA-A*01:01): ≥ 20 µM | Kd (HLA-A*31:01 [6]): ≥ 20 µM | Kd (HLA-B*07:02; source organism: Camelpox virus M-96): ≥ 20 µM | Kd (HLA-B*15:01 [7]): 0.0177 µM | Kd (HLA-B*27:05 [8]): ≥ 20 µM | Kd (HLA-B*46:01 [9]): ≥ 20 µM | Kd (HLA-B*48:01): ≥ 20 µM | Kd (HLA-B*57:01 [10]): ≥ 20 µM | Kd (HLA-B*58:01): ≥ 20 µM | Kd (HLA-C*12:03; [14]): ≤ 0.001 µM | Kd (HLA-A*02:01; [14]): ≥ 20 µM | Kd (HLA-A*11:01): 2.08 µM | Kd (HLA-A*26:01; [14]): 0.0167 µM | Kd (HLA-A*26:02): 0.0668 µM | Kd (HLA-A*30:01): ≥ 20 µM | Kd (HLA-A*68:02; [14]): 0.0496 µM | Kd (HLA-B*15:17; [14]): 0.12 µM | Kd (HLA-B*35:01): 0.0057 µM

LAIEATLAF
Kd (HLA-C*03:03): ≥ 20 µM | Kd (HLA-C*12:03; [15]): 1.04 µM | Kd (HLA-C*15:02; [15]): ≥ 20 µM

KCRLRMDKL
Kd (HLA-B*08:02; source organism: Dengue virus 2 Thailand/16681/84): ≥ 20 µM

RLTGREGAV
Kd (HLA-B*07:02; source organism: Pseudomonas aeruginosa): 7.02 µM | Kd (HLA-A*02:16; source organism: Pseudomonas aeruginosa PACS2): 0.345 µM

SWLYNYFVF
Kd (HLA-C*14:02): 0.438 µM | Kd (HLA-C*15:02; [16]): ≥ 20 µM | Kd (HLA-A*24:02; [16]): 0.0003 µM

Source: the Immune Epitope Database (IEDB)
